According to patent US20060240012A1:

Tests used:
[1] = target: human interleukin-6 (human) (UniProt P05231); assay: SPR (BIAcore), purified scFv
[2] = target: human interleukin-6 (human) (UniProt P05231); assay: SPR (BIAcore), human IL-6 immobilised, IL6gk3-2 scFv injected at 10 to 80 nM

Sequence of UniProt P05231 (P05231 29-212 limits assumed): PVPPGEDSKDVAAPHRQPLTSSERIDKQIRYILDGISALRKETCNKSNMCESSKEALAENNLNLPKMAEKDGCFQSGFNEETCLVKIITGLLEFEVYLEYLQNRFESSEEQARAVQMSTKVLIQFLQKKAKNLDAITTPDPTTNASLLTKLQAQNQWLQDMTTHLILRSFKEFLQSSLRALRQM

Kd [1]: 13 nM | koff [2]: 0.0008 s⁻¹ | kon [2]: 60000 M⁻¹ s⁻¹
B1: IL6gk3-2 scFv (purified soluble single chain Fv of the human anti-human IL-6 antibody clone IL6gk3-2) (scFv, part only; not given: linker and E-tag, V domains shown, not shown: another chain or arm of the molecule; small tags and cut ends)
VH: QVNLRESGGDLVKPGGSLRLSCAASGFTFRKYYMAWIRQAPGKGPEWLSTISNSGDIIDYADSVRGRFSISRDNAQKSLYLQMTSLRPDDSAIYYCAREYFFSFDVWGRGTMVTVSS
VL: DIVMTQSPSSVSASVGDRVTIFCRASQDIRNWVAWYQQKPGEAPKLLIYDGSSLQSGVPSRFSGSGSGTEFTLTISSLQPEDFATYYCQQSDSTPITFGQGTRLEIK
